The record followed here is patent US20150044169, “METHODS OF […] A […] FAMILY VIRAL INFECTION, COMPOSITIONS FOR […] A […] FAMILY VIRAL INFECTION, AND […] ASSAYS FOR […] COMPOSITIONS FOR […] A […] FAMILY VIRAL INFECTION” (The Board of Trustees of the Leland Stanford Junior …, published 2015).

For this data set, the target named is Gus (beta-glucuronidase) control (UniProt P05804 P05804:1-603). Nature of the data set: MITOMI Gus-his negative control. Particulars: tags: C-terminal 6xHis (Roche Gus-his vector); label: Cy3.
Gus (beta-glucuronidase) control, sequence (P05804 whole entry, one chain of several): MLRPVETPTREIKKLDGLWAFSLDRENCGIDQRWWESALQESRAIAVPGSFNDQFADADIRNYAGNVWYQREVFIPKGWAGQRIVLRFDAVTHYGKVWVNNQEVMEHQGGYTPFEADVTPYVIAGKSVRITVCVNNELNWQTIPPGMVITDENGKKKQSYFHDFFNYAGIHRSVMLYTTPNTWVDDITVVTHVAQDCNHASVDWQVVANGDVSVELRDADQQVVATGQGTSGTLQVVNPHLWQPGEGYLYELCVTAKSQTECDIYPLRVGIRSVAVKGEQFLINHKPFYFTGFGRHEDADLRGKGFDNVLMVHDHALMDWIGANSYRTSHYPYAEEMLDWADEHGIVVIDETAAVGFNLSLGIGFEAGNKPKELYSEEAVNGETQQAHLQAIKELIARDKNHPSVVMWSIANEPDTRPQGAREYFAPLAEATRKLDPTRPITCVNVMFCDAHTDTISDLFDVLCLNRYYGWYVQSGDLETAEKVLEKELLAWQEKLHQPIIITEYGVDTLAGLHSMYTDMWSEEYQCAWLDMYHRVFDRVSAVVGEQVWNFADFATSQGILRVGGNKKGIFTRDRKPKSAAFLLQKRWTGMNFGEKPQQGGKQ

Text: For each experiment, an image was taken after MITOMI and the final PBS wash. This was used to determine the concentration of surface bound protein (FITC channel) as well as surface bound target RNA (Cy3 channel). […] Data from multiple data points were averaged, and their standard deviations calculated. Results were then normalized to 1. Between 10-20 replicates were included for each probe tested. A control protein, Gus-his (Roche) was included in each experiment and subjected to the same analysis. When present, detected signal with Gus-his was used for background subtraction.
A microarray of Cy3-labeled target RNA sequences was used to program a microfluidic device, and binding of bodiby-labeled proteins expressed on the device to the RNA sequences was assayed. Results represent the ratio of bound RNA (median Cy3 signal) to expressed protein (median bodipy signal). Normalized mean values for 10-20 replicates measured in two independent experiments are shown. Error bars represent standard deviation. The grey bars represent binding of HuR-his and the clear bars that of Gus-his, used as a negative control.

Consider AUUUAUUUAUUUAUUUA (ssRNA) [4A], for which the binding result is on record as “no binding”.
